Molecular target: RecU protein from Mycoplasma genitalium (RecUMge) (Mycoplasma genitalium) (UniProt Q49422)

- HJ resolution activity of RecUMge (0.2 uM) on HJ 1.1 preincubated with RecUMge before RuvAMge (0 to 4 uM) was added; percent inhibition (≥20% only at ≥250 nM): > 80%
- HJ resolution activity of RecUMge (0.2 uM) on HJ 1.1 preincubated with RuvAMge (0 to 4 uM) before RecUMge was added; percent reduction of activity (about 20% at 60 nM, highest at 1 uM or more): > 80%
Substance: RuvA homologue from Mycoplasma genitalium (RuvAMge), H10-tagged (from UniProt Q49424 1-205) (natural protein)

— publication PMC3364216
